From patent US20110065176A1 (PHARMABCINE, published 2011)

Target: T1, KDR (VEGFR-2) expressed on the cell surface (human, UniProt P35968 20-1356)
T1 construct: whole, on cells; also called endogenous human KDR; KDR of HUVEC cells
Assay: FACS on HUVEC cells pretreated with 20 ng/ml VEGF, against IMC-1C11 IgG

T1 sequence (P35968 20-1356): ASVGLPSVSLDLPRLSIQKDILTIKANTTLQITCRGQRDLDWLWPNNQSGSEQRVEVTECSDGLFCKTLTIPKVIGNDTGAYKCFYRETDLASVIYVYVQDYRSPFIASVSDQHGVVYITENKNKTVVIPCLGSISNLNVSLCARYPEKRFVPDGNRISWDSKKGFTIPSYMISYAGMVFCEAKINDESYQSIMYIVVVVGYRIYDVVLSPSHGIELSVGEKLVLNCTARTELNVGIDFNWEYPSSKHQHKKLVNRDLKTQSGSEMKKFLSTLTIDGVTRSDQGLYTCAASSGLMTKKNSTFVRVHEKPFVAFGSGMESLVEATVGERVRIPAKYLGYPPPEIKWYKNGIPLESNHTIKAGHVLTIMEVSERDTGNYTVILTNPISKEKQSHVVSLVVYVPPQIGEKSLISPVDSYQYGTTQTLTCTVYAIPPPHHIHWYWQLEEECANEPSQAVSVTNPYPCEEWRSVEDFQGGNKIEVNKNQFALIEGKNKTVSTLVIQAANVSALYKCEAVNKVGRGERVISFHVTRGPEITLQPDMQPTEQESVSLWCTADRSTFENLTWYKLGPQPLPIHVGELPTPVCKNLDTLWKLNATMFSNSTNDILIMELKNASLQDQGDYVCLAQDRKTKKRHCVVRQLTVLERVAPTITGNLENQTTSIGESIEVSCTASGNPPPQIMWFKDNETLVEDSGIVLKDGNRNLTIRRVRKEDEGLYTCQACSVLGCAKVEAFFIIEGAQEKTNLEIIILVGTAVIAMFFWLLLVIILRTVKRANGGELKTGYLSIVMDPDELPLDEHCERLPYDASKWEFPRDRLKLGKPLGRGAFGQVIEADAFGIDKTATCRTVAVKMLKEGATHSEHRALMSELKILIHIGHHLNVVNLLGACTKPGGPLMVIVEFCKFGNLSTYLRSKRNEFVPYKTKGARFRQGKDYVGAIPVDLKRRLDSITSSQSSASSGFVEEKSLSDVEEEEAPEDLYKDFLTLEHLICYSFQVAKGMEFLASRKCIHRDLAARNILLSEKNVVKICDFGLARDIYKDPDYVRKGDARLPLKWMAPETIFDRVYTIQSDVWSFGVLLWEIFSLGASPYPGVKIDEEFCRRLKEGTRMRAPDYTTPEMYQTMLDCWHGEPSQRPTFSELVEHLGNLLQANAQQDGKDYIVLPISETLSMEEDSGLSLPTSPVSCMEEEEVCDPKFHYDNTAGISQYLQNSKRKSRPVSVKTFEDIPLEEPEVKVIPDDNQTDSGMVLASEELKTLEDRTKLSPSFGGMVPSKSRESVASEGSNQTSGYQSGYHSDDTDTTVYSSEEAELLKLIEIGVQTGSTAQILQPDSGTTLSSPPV

fold higher KDR neutralizing ability than IMC-1C11 IgG: ~2 fold
B1: 6A6 IgG (antibody, V domains shown)
VH: QMQLVQSGAEVKKPGASVKLSCKASGYTFSSYWMHWVRQAPGQRLEWMGEINPGNGHTNYNEKFKSRVTITVDKSASTAYMELSSLRSEDTAVYYCAKIWGPSLTSPFDYWGQGTLVTVSS
VL: SNFMLTQPPSVSVSPGKTARITCRGDNLGDVNVHWYQQRPGQAPVLVMYYDADRPSGIPERFSGSNSGNTATLTISGVEAGDEADYYCQVWDRTSEYVFGTGTKVTVLG
notes: Whole human IgG expressed in CHO DG44 cells; also called 6A6 antibody; anti-KDR 6A6 IgG
